Drawing on paper PMC11066147, this text covers kon, Kd and koff for eight substances.

Common to all, as to experiment: SPR
Background: In SPR one partner is held on a chip, and binding of the other changes the refractive index at the surface.

Experiment [1] concerns the target DnaKLS (linker switch mutant of DnaK harbouring the PfHsp70-z linker) (E. coli) (UniProt P0A6Y8).
For experiment [2], the target named is PfHsp70-zLS (linker switch mutant of PfHsp70-z carrying the linker of canonical Hsp70) (Plasmodium falciparum) (UniProt Q8IC01).
The target in experiment [3] is DnaKLS (linker switch mutant of DnaK harbouring the PfHsp70-z linker) (E. coli) (UniProt P0A6Y8). This is another data set of the same source.
The target in experiment [4] is PfHsp70-1LS (linker switch mutant of PfHsp70-1 carrying the linker of PfHsp70-z) (Plasmodium falciparum) (UniProt Q8IB24).
The target is the same in experiment [5]. The source holds these as a separate data set.
The target in experiment [6] is PfHsp70-zLS (linker switch mutant of PfHsp70-z carrying the linker of canonical Hsp70) (Plasmodium falciparum) (UniProt Q8IC01). The source holds these as a separate data set.

Where “and” joins values, the source holds several entries; their conditions need not be identical. Identical values can stand only once. Like-named read-outs stand apart in the source and are kept apart here.

“E. coli Hsp70 (DnaK) (from UniProt P0A6Y8 1-638) (natural protein)”: the kon – broadly, the rate constant with which the complex forms – in experiment [1] is 45700 M⁻¹ s⁻¹ and 73200 M⁻¹ s⁻¹ and 63200 M⁻¹ s⁻¹.
Turning to ANNNMYRR (peptide), the Kd (in general, the concentration at which binding is half-saturated) amounted to 3.3 nM in experiment [2]; 1690 nM in experiment [3]; 977 nM in experiment [4]; 1770 nM in experiment [1]; 778 nM in experiment [5].
In the case of NRNNTG (peptide), the Kd in experiment [2] was determined as 25.6 nM; in experiment [3], 855 nM; in experiment [4] it was 466 nM; in experiment [6], 59.5 nM; in experiment [1] it was 716 nM; in experiment [5], 132 nM.
Consider ALLLMYRR (peptide), for which the dissociation constant (Kd) in experiment [2] was 41.6 nM; in experiment [3], 2440 nM; in experiment [4], 99.3 nM; in experiment [6], 36.5 nM; in experiment [1], 1950 nM; in experiment [5], 89.4 nM.
Consider NRLLTG (peptide), for which the Kd in experiment [2] stood at 21.1 nM; in experiment [3] it was 962 nM; in experiment [4], 174 nM; in experiment [6], 20.7 nM; in experiment [1], 891 nM; in experiment [5], 682 nM.
Regarding “DnaKLS (linker switch mutant of DnaK harbouring the PfHsp70-z linker) (from UniProt P0A6Y8 1-638) (natural protein)”, in experiment [1], the koff (as a rule, the rate constant with which the complex falls apart) is 0.0714 s⁻¹ and 0.0903 s⁻¹ and 0.0492 s⁻¹.
Regarding “Plasmodium falciparum heat shock protein 70-1 (PfHsp70-1) (from UniProt Q8IB24 1-677) (natural protein)”, in experiment [5], the Kd is 4700 nM and 3370 nM and 998 nM; the koff was 0.0935 s⁻¹ and 0.0539 s⁻¹ and 0.0392 s⁻¹; the kon was 19900 M⁻¹ s⁻¹ and 16000 M⁻¹ s⁻¹ and 39500 M⁻¹ s⁻¹.
Turning to “PfHsp70-1LS (linker switch mutant of PfHsp70-1 carrying the linker of PfHsp70-z) (from UniProt Q8IB24 1-677) (natural protein)”, in experiment [5], the Kd is 42400 nM and 17200 nM and 59000 nM; the koff is 0.0447 s⁻¹ and 0.0633 s⁻¹ and 0.0666 s⁻¹.
